The values below come from PMC4736438, “Cation–π Interactions Contribute to Substrate Recognition in γ‐Butyrobetaine Hydroxylase Catalysis” (Chemistry (Weinheim an Der Bergstrasse, Germany), 2015).

One data set addresses T1, psBBOX (Pseudomonas sp. AK-1, UniProt P80193).
T1 construct: recombinant, purified on HisTrap and Superdex S200; metal-free buffer
T1 sequence (P80193 1-383): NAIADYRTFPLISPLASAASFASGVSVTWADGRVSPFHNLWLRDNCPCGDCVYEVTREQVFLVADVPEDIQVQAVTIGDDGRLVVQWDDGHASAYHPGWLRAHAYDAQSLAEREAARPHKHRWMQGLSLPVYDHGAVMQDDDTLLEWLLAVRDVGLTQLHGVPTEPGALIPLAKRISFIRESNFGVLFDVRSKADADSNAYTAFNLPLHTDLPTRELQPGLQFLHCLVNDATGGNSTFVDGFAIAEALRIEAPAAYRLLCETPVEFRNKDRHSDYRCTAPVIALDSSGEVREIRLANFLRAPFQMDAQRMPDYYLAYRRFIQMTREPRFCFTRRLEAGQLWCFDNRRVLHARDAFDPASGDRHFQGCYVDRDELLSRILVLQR
Kind of data set: 1H NMR (CPMG) protein titration. The data set is classed as binding.

Substrate in data set [1]: C[N+](C)(C)CCCC(=O)[O-]
The experiment in a line: LC-MS hydroxylation kinetics. The data set is classed as biochemical, Pseudomonas sp. AK-1. The note with it: […] psBBOX, […] FeSO4, […] 2OG, […] ascorbate, Tris pH […] K. From the text: LC-MS hydroxylation kinetics on psBBOX

As for `C[N+](C)(C)CCCC(=O)[O-]` [compound 1, γBB], the Kd on psBBOX was found to be 5 µM.

B1: psBBOX (Pseudomonas sp. AK-1) (protein)
chain: NAIADYRTFPLISPLASAASFASGVSVTWADGRVSPFHNLWLRDNCPCGDCVYEVTREQVFLVADVPEDIQVQAVTIGDDGRLVVQWDDGHASAYHPGWLRAHAYDAQSLAEREAARPHKHRWMQGLSLPVYDHGAVMQDDDTLLEWLLAVRDVGLTQLHGVPTEPGALIPLAKRISFIRESNFGVLFDVRSKADADSNAYTAFNLPLHTDLPTRELQPGLQFLHCLVNDATGGNSTFVDGFAIAEALRIEAPAAYRLLCETPVEFRNKDRHSDYRCTAPVIALDSSGEVREIRLANFLRAPFQMDAQRMPDYYLAYRRFIQMTREPRFCFTRRLEAGQLWCFDNRRVLHARDAFDPASGDRHFQGCYVDRDELLSRILVLQR
notes: recombinant, purified on HisTrap and Superdex S200; metal-free buffer
Turning to B1, in data set [1], the Km was 1000 ± 210 µM, the Vmax was 169 µM/min and the kcat was 7.02 ± 0.77 s⁻¹.

A word on the Kd: it is a measure of binding affinity in units of concentration. A low value points to a tighter complex. As usually defined, the Km is the substrate concentration at which the rate is half of its maximum. The Vmax is the top rate of the reaction or transport when substrate is in excess. As a reminder, the kcat is the number of substrate molecules converted per active site and unit of time at saturation.
